Like-named read-outs stand apart in the source and are kept apart here.
Key:
[1] = target: T1, recombinant human GARP-proTGFβ1 complex (Homo sapiens, UniProt P01137); test: Octet (Biolayer Interferometry) in vitro kinetic binding; details: in M
T1 construct: made in house
Procedure, shortened: (§1)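 Antibody binding kinetics (KD) were determined by biolayer interferometry (Octet QKe) using streptavidin-coated biosensors. Biotinylated human presenting molecule–proTGFβ1 complexes were presented at […].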

[2] = target: T2, recombinant human LRRC33-proTGFβ1 complex (Homo sapiens, UniProt P01137); test: as above; details: in M
T2 construct: made in house
Procedure, shortened: as §1

[3] = target: T3, recombinant human LTBP1-proTGFβ1 complex (Homo sapiens, UniProt P01137); test: as above; details: in M
T3 construct: made in house; host or cells: Expi293F cells, transient co-transfection
Procedure, shortened: as §1

[4] = target: T4, recombinant human LTBP3-proTGFβ1 complex (Homo sapiens, UniProt P01137); test: as above; details: in M
T4 construct: made in house; host or cells: Expi293F cells, transient co-transfection
Procedure, shortened: as §1

[5] = tested on: matrix-associated (LTBP1/LTBP3) and cell-associated (GARP/LRRC33) proTGFβ1 complexes; test: Octet: average KD and fold bias, matrix- vs cell-associated complexes; format: binding, human; details: for Kd: average KD of (E) and (F), cell-associated complexes, read-out: (G) Cell AVRG; for (H) G/D (fold bias): ratio of average KD cell-associated / matrix-associated
Procedure, shortened: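 Monoclonal antibodies were measured for binding affinity, expressed as KD, to cell-surface or cell-associated proTGFβ1 complexes (GARP and LRRC33). The KD values for the two complexes were averaged to give one value for cell-associated affinity. That average was then divided by the matrix-associated average to express fold bias between the complex types.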

[6] = tested on: hLTBP1-/hLTBP3-proTGFβ1 vs hGARP-/hLRRC33-proTGFβ1 complexes; test: Solution equilibrium titration: relative affinity (bias) LTBP complexes vs cell-associated complexes; format: binding, human; details: MSD-SET; for (H) G/D (fold bias): ratio of average KD cell-associated / matrix-associated
From the text: Context-biased: As used herein, “context-biased antibodies” refer to a type of conformational antibodies that binds an antigen with differential affinities when the antigen is associated with (i.e., bound to or attached to) an interacting protein or a fragment thereof. Thus, a context-biased antibody that specifically binds an epitope within proTGFβ1 may bind LTBP1-proTGFβ1, LTBP3-proTGFβ1, GARP-proTGFβ1 and LRRC33-proTGFβ1 with different affinities. […] Relative affinities of [matrix-associated complexes]: [cell-associated complexes] may be obtained by taking average KD values of the former, taking average KD values of the latter, and calculating the ratio of the two, as exemplified herein.
In a yet further aspect, the present disclosure provides context-biased TGFβ1 inhibitors. The context-biased antibodies include LTBP-biased antibodies with higher affinities for ECM-associated LLCs than for cell-associated LLCs wherein the affinities are measured at equilibrium.

[7] = tested on: matrix-associated (LTBP1/LTBP3) and cell-associated (GARP/LRRC33) proTGFβ1 complexes; test: Octet: average KD and fold bias, matrix- vs cell-associated complexes; format: binding, human; details: average KD of (B) and (C), read-out: (D) ECM AVRG
[8] = average KD of (B) and (C), read-out: (D) ECM AVRG
[9] = average KD of (E) and (F), read-out: (G) Cell AVRG

T2 sequence (P01137 30-390): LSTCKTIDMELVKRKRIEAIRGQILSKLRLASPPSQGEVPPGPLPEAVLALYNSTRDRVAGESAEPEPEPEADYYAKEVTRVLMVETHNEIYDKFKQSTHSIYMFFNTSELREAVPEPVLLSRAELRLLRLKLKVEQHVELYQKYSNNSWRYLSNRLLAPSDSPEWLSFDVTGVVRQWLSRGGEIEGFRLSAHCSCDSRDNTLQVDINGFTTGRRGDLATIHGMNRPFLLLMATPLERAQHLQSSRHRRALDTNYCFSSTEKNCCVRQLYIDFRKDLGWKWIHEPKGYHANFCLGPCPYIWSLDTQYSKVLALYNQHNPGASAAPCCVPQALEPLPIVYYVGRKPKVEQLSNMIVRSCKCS
T2 sequence (Q86YC3 19-650 partner limits assumed): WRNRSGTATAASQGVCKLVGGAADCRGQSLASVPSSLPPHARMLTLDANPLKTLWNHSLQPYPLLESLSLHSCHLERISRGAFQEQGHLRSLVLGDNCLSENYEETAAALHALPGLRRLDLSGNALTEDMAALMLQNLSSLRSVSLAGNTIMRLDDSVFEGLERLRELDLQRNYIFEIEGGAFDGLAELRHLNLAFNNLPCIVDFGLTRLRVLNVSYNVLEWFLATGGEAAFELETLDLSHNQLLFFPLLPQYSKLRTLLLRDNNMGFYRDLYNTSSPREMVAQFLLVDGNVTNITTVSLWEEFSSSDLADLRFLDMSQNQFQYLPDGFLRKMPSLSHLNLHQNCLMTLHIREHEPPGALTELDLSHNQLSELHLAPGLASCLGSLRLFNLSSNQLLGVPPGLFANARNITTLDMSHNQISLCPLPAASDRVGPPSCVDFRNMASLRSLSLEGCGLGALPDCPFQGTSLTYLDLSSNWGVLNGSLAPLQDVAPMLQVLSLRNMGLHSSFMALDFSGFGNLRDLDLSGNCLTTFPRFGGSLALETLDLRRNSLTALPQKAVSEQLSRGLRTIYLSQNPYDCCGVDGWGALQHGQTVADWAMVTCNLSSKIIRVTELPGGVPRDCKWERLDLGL
T4 sequence (P01137 30-390): as the sequence (P01137 30-390) above
T4 sequence (Q9NS15 866-1039 partner limits assumed): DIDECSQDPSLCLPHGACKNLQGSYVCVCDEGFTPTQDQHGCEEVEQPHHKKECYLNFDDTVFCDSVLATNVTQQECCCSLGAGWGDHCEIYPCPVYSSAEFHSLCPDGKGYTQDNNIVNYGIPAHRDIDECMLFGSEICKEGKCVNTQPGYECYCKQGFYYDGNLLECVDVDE
T1 sequence (P01137 30-390): as the sequence (P01137 30-390) above
T1 sequence (Q14392 20-627 partner limits assumed): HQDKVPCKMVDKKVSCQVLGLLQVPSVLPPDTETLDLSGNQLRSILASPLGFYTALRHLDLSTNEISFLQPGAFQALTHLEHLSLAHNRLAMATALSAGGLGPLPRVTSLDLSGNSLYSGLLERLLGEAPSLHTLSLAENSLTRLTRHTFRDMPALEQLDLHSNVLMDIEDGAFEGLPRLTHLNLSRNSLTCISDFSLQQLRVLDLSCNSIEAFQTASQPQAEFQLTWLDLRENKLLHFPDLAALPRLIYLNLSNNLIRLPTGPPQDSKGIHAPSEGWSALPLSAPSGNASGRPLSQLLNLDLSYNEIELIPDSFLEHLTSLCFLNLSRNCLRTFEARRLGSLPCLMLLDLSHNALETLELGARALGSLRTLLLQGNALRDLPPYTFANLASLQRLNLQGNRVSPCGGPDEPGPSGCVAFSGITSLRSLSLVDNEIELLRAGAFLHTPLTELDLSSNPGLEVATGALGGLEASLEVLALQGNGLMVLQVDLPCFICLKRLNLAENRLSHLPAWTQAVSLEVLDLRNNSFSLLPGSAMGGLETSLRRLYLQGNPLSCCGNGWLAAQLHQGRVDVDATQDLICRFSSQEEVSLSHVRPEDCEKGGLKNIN
T3 sequence (P01137 30-390): as the sequence (P01137 30-390) above
T3 sequence (Q14766 873-1507 partner): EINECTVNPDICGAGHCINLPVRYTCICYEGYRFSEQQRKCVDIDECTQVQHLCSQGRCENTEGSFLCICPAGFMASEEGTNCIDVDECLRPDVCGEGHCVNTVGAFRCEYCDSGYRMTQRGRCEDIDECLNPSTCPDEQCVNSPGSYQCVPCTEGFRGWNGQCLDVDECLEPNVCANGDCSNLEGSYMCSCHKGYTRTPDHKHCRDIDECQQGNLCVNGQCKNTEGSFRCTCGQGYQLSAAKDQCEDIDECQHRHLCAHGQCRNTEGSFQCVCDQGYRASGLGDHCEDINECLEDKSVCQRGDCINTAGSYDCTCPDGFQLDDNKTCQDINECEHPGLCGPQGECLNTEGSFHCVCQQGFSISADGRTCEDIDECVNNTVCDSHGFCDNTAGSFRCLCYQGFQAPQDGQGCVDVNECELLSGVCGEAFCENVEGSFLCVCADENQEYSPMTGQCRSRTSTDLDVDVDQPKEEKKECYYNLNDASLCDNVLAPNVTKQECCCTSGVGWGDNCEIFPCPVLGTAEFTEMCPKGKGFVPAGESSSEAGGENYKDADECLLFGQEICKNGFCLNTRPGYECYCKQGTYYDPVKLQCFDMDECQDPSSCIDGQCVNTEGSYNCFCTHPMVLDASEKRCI

Molecule	(E) hGARP, Cell-associated proTGFb1 (KD) [1]	(F) hLRRC33, Cell-associated proTGFb1 (KD) [2]	(B) hLTBP1, Matrix-associated proTGFb1 (KD) [3]	(C) hLTBP3, Matrix-associated proTGFb1 (KD) [4]	Kd [5]	(H) G/D (fold bias) [5]	Kd [6, 8]	Kd [6, 9]	(H) G/D (fold bias) [6]	Kd [7]
Ab12: monoclonal antibody; VH SEQ ID NO: 237, VL SEQ ID NO: 241 (antibody, V domains shown) VH: QVQLVESGGGVVQPGRSLRLSCAASGFTFSDYAMVWVRQAPGKGLEWVSAISGSGFTTYYADSVKGRFTISRDNSKNTLYLQMNSLRAEDTAVYYCARVSSGHWDFDYWGQGTLVTVSS VL: DIQLTQSPSSLSASVGDRVTITCRASQSISSYLNWYQQKPGKAPKLLIYAASNLQSGVPSRFSGSGSGTDFTLTISSLQPEDFATYYCQQTYTVPLTFGGGTKVEIK	7.01E−09	7.75E−10	1.57E−10	1.83E−10	3.89 nM	22.897 fold	0.72 nM	2.45 nM	3.40 fold	0.17 nM
Ab24: monoclonal antibody; VH SEQ ID NO: 132, VL SEQ ID NO: 15 (antibody, V domains shown) VH: EVQLVESGGGLVQPGRSLRLSCAASGFTFSSFAMYWVRQAPGKGLEWVSYISPDASTIYYADSVKGRFTISRDNAKNSLYLQMNSLRAEDTAVYYCARGVLDYGDMLDPWGQGTLVTVSS VL: DIQMTQSPSSLSASVGDRVTITCQASQDITNYLNWYQQKPGKAPKLLIYDASNLETGVPSRFSGSGSGTDFTFTISSLQPEDIATYYCQQADNHPPWTFGGGTKVEIK	6.65E−10	4.10E−10	2.46E−10	1.98E−10	0.537 nM	2.421 fold	0.023 nM	0.1 nM	4.35 fold	0.222 nM
Ab32: monoclonal antibody; VH SEQ ID NO: 140, VL SEQ ID NO: 15 (antibody, V domains shown) VH: EVQLVESGGGLVQPGGSLRLSCAASGFTFSSFSMNWVRQAPGKGLEWVSYISPSADTIYYADSVKGRFTISRDNAKNTLYLQMNSLRAEDTAVYYCARGVWDMGDMLDPWGQGTLVTVSS VL: DIQMTQSPSSLSASVGDRVTITCQASQDITNYLNWYQQKPGKAPKLLIYDASNLETGVPSRFSGSGSGTDFTFTISSLQPEDIATYYCQQADNHPPWTFGGGTKVEIK	4.96E−10	6.98E−10	2.69E−10	2.15E−10	0.597 nM	2.467 fold	0.032 nM	0.051 nM	1.60 fold	0.242 nM
Ab30: monoclonal antibody; VH SEQ ID NO: 138, VL SEQ ID NO: 15 (antibody, V domains shown) VH: EVQLVESGGGLVQPGGSLRLSCAASGFTFSSFSMDWVRQAPGKGLEWVSYISPDASTIYYADSVKGRFTISRDNAKNSLYLQMNSLRAEDTAVYYCARGTLDYGDMLDPWGQGTLVTVSS VL: DIQMTQSPSSLSASVGDRVTITCQASQDITNYLNWYQQKPGKAPKLLIYDASNLETGVPSRFSGSGSGTDFTFTISSLQPEDIATYYCQQADNHPPWTFGGGTKVEIK	8.33E−10	5.35E−10	3.32E−10	2.61E−10	0.684 nM	2.307 fold	0.029 nM	0.081 nM	2.80 fold	0.296 nM
Ab29: monoclonal antibody; VH SEQ ID NO: 137, VL SEQ ID NO: 15 (antibody, V domains shown) VH: EVQLVESGGGLVQPGRSLRLSCAASGFTFSSFAMNWVRQAPGKGLEWVSYISPDASTIYYAGSVKGRFTISRDNAKNSLYLQMNSLRAEDTAVYYCVRAVLDYGDMLDPWGQGTLVTVSS VL: DIQMTQSPSSLSASVGDRVTITCQASQDITNYLNWYQQKPGKAPKLLIYDASNLETGVPSRFSGSGSGTDFTFTISSLQPEDIATYYCQQADNHPPWTFGGGTKVEIK	3.07E−10	3.02E−10	1.89E−10	1.21E−10	0.304 nM	1.965 fold	–	0.024 nM	2.00 fold	0.155 nM
Ab31: monoclonal antibody; VH SEQ ID NO: 139, VL SEQ ID NO: 15 (antibody, V domains shown) VH: EVQLVESGGGLVQPGGSLRLSCAASGFTFSSFSMDWVRQAPGKGLEWVSYISPDASTIYYADSVKGRFTISRDNAKNTLYLQMNSLRAEDTAVYYCARAVLDYGDMLDPWGQGTLVTVSS VL: DIQMTQSPSSLSASVGDRVTITCQASQDITNYLNWYQQKPGKAPKLLIYDASNLETGVPSRFSGSGSGTDFTFTISSLQPEDIATYYCQQADNHPPWTFGGGTKVEIK	5.81E−10	4.10E−10	2.36E−10	1.81E−10	0.495 nM	2.376 fold	0.017 nM	0.058 nM	3.41 fold	0.208 nM
Ab33: monoclonal antibody; VH SEQ ID NO: 141, VL SEQ ID NO: 15 (antibody, V domains shown) VH: EVQLVESGGGLVQPGGSLRLSCAASGFTFSSFSMNWVRQAPGKGLEWVSYISPSADTIYYADSVKGRFTISRDNAKNTLYLQMNSLRAEDTAVYYCAHGVLDYGDMLDPWGQGTLVTVSS VL: DIQMTQSPSSLSASVGDRVTITCQASQDITNYLNWYQQKPGKAPKLLIYDASNLETGVPSRFSGSGSGTDFTFTISSLQPEDIATYYCQQADNHPPWTFGGGTKVEIK	2.65E−10	3.39E−10	1.79E−10	1.11E−10	0.302 nM	2.083 fold	0.009 nM	0.027 nM	3.00 fold	0.145 nM
Ab26: monoclonal antibody; VH SEQ ID NO: 134, VL SEQ ID NO: 15 (antibody, V domains shown) VH: EVQLVESGGGLVQPGGSLRLSCAASGFTFSSFSMDWVRQAPGKGLEWVSYISPDASTIYYADSVKGRFTISRDNAKNTLYLQMNSLRAEDTAVYYCARGVLDYGDMLDPWGQGTLVTVSS VL: DIQMTQSPSSLSASVGDRVTITCQASQDITNYLNWYQQKPGKAPKLLIYDASNLETGVPSRFSGSGSGTDFTFTISSLQPEDIATYYCQQADNHPPWTFGGGTKVEIK	6.25E−10	3.60E−10	2.21E−10	1.73E−10	0.492 nM	2.500 fold	0.026 nM	0.072 nM	2.77 fold	0.197 nM

— patent US11130803B2, “Isoform-selective TGFβ1 inhibitors and use thereof” (Scholar Rock, Inc., priority 2018, dated 2021)
